According to PMC5073337:

Experiments:
[1] = biological target: SUMO2ΔGG, diglycine-deficient mouse SUMO2 mutant, adenovirally overexpressed (mouse) (UniProt P61957); test: proximity ligation; fixed NRVCM; primary antibodies against SUMO2/3 (Abcam, mouse) and CnA (Upstate, rabbit); cells infected with Ad LacZ, Ad S2 or Ad S2ΔGG with or without Ad ΔCnA; read-out: percentage of PLA-positive nuclei
[2] = biological target: SUMO2, full-length mouse, adenovirally overexpressed (mouse) (UniProt P61957); test: as above

Substance	PLA signal (percent) [1] [%]	PLA signal (percent) [2] [%]	increase of PLA signal on overexpression [1] [%]	increase of PLA signal on overexpression [2] [%]
constitutively active calcineurin A (from UniProt P63328 1-521) (enzyme)	54	64		
calcineurin A (endogenous, rat) (from UniProt P63329 1-521) (natural protein)			17	14
